Reference: IntAct's records for PubMed 31515488

B1: Protein FAM9B (Homo sapiens), Q8IZU0 (parent)
chain: MAAWGKKHAGKDPVRDECEERNRFTETREEDVTDEHGEREPFAETDEHTGANTKKPEDTAEDLTAKRKRMKMDKTCSKTKNKSKHALRKKQLKRQKRDYIHSLKLLNVLEEYITDEQKEEEEEEGEEEELIRIFQEQQKKWQQYRSVRRERLKEMKLLRDQFVKALEDFEDLCDRVFSDEDSELDN
B2: Radial spoke head protein 3 homolog (Homo sapiens), Q86UC2 (parent)
chain: MTVKPAKAASLARNLAKRRRTYLGGAAGRSQEPEVPCAAVLPGKPGDRNCPEFPPPDRTLGCWATDAAPAAGLCGAGSEPSIAPTSCAGNLPSRPPPLLSPLLASRNPCPWHYLHLSGSHNTLAPTCFKAKLHRKRGSQPPDMASALTDRTSRAPSTYTYTSRPRALPCQRSRYRDSLTQPDEEPMHYGNIMYDRRVIRGNTYALQTGPLLGRPDSLELQRQREARKRALARKQAQEQLRPQTPEPVEGRKHVDVQTELYLEEIADRIIEVDMECQTDAFLDRPPTPLFIPAKTGKDVATQILEGELFDFDLEVKPVLEVLVGKTIEQSLLEVMEEEELANLRASQREYEELRNSERAEVQRLEEQERRHREEKERRKKQQWEIMHKHNETSQKIAARAFAQRYLADLLPSVFGSLRDSGYFYDPIERDIEIGFLPWLMNEVEKTMEYSMVGRTVLDMLIREVVEKRLCMYEHGEDTHQSPEPEDEPGGPGAMTESLEASEFLEQSMSQTRELLLDGGYLQRTTYDRRSSQERKFMEERELLGQDEETAMRKSLGEEELS
partner: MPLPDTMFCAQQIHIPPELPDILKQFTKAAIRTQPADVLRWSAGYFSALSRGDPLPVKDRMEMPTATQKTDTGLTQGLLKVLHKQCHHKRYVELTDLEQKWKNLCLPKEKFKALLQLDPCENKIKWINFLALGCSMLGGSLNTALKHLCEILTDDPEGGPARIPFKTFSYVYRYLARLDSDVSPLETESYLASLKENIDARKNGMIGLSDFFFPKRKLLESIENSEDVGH
B3: Oxidative stress-induced growth inhibitor 1 (Homo sapiens), Q9UJX0 (parent)
chain: MSSSRKDHLGASSSEPLPVIIVGNGPSGICLSYLLSGYTPYTKPDAIHPHPLLQRKLTEAPGVSILDQDLDYLSEGLEGRSQSPVALLFDALLRPDTDFGGNMKSVLTWKHRKEHAIPHVVLGRNLPGGAWHSIEGSMVILSQGQWMGLPDLEVKDWMQKKRRGLRNSRATAGDIAHYYRDYVVKKGLGHNFVSGAVVTAVEWGTPDPSSCGAQDSSPLFQVSGFLTRNQAQQPFSLWARNVVLATGTFDSPARLGIPGEALPFIHHELSALEAATRVGAVTPASDPVLIIGAGLSAADAVLYARHYNIPVIHAFRRAVDDPGLVFNQLPKMLYPEYHKVHQMMREQSILSPSPYEGYRSLPRHQLLCFKEDCQAVFQDLEGVEKVFGVSLVLVLIGSHPDLSFLPGAGADFAVDPDQPLSAKRNPIDVDPFTYQSTRQEGLYAMGPLAGDNFVRFVQGGALAVASSLLRKETRKPP
B4: Proto-oncogene serine/threonine-protein kinase mos (Homo sapiens), P00540 (parent)
chain: MPSPLALRPYLRSEFSPSVDARPCSSPSELPAKLLLGATLPRAPRLPRRLAWCSIDWEQVCLLQRLGAGGFGSVYKATYRGVPVAIKQVNKCTKNRLASRRSFWAELNVARLRHDNIVRVVAASTRTPAGSNSLGTIIMEFGGNVTLHQVIYGAAGHPEGDAGEPHCRTGGQLSLGKCLKYSLDVVNGLLFLHSQSIVHLDLKPANILISEQDVCKISDFGCSEKLEDLLCFQTPSYPLGGTYTHRAPELLKGEGVTPKADIYSFAITLWQMTTKQAPYSGERQHILYAVVAYDLRPSLSAAVFEDSLPGQRLGDVIQRCWRPSAAQRPSARLLLVDLTSLKAELG
partner: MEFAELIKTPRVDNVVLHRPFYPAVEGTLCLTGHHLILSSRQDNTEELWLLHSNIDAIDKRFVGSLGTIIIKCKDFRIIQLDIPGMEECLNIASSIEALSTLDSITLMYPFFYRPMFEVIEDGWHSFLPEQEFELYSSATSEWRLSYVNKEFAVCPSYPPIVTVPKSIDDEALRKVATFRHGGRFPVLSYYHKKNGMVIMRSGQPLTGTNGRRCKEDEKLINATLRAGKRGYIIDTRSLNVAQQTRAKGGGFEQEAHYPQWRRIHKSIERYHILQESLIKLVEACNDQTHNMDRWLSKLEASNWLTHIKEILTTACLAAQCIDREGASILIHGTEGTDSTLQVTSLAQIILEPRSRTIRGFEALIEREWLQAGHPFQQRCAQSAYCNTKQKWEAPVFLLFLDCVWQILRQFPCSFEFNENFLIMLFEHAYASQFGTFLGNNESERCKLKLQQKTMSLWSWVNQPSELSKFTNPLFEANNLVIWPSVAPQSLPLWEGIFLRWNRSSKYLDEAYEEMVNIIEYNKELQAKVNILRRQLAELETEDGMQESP
B5: Coiled-coil domain-containing protein 33 (Homo sapiens), Q8N5R6-5 (parent)
chain: MGEPGPPSPPAPKAAPGLIDSFSEMNNYRRAMQKMAEDILSLRRQASILEGENRILRSRLAQQEEEEGQGKASEAQNTVSMKQKLLLSELDMKKLRDRVQHLQNELIRKNDREKELLLLYQAQQPQAALLKQYQGKLQKMKALEETVRHQEKVIEKMERVLEDRLQDRSKPPPLNRQQGKPYTGFPMLSASGLPLGSMGENLPVELYSVLLAENAKLRTELDKNRHQQAPIILQQQALPVDPGELGAGGDLTERLQETHGPGHSECTETLPAQDLLSGTSDKFNLLAKLEHAQSRILSLESQLEDSARRWGREKQDLATRLQEQEKGFRHPSNSIIIEQPVSDPPGVAPRGSGGGAGSHRTPKVTGP
partner: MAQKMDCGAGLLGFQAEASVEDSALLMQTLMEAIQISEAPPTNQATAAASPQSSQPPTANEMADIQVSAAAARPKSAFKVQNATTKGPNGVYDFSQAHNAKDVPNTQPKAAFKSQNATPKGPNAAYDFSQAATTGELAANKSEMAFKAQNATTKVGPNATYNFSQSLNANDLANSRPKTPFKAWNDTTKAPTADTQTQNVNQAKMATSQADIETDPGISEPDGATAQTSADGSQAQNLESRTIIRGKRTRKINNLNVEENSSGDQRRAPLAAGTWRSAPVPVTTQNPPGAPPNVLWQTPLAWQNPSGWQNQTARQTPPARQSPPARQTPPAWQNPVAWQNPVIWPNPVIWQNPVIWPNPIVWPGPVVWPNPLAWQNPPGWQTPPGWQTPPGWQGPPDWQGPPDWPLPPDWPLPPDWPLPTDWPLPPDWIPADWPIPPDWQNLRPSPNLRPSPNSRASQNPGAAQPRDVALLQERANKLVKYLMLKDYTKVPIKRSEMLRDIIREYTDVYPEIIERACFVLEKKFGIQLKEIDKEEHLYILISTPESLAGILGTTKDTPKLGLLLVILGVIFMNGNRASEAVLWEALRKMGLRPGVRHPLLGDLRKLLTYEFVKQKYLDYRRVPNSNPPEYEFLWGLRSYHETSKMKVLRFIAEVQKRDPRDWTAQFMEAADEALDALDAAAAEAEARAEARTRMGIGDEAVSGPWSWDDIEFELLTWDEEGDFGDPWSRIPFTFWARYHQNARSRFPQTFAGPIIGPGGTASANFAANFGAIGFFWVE
B6: Growth arrest and DNA damage-inducible protein GADD45 gamma (Homo sapiens), O95257 (parent)
chain: MTLEEVRGQDTVPESTARMQGAGKALHELLLSAQRQGCLTAGVYESAKVLNVDPDNVTFCVLAAGEEDEGDIALQIHFTLIQAFCCENDIDIVRVGDVQRLAAIVGAGEEAGAPGDLHCILISNPNEDAWKDPALEKLSLFCEESRSVNDWVPSITLPE
B7: Keratin, type I cuticular Ha8 (Homo sapiens), O76015 (parent)
chain: MTSSYSSSSCPLGCTMAPGARNVSVSPIDIGCQPGAEANIAPMCLLANVAHANRVRVGSTPLGRPSLCLPPTCHTACPLPGTCHIPGNIGICGAYGENTLNGHEKETMQFLNDRLANYLEKVRQLEQENAELEATLLERSKCHESTVCPDYQSYFHTIEELQQKILCSKAENARLIVQIDNAKLAADDFRIKLESERSLRQLVEADKCGTQKLLDDATLAKADLEAQQESLKEEQLSLKSNHEQEVKILRSQLGEKLRIELDIEPTIDLNRVLGEMRAQYEAMLETNRQDVEQWFQAQSEGISLQDMSCSEELQCCQSEILELRCTVNALEVERQAQHTLKDCLQNSLCEAEDRFGTELAQMQSLISNVEEQLSEIRADLERQNQEYQVLLDVKTRLENEIATYRNLLESEDCKLPCNPCSTSPSCVTAPCAPRPSCGPCTTCGPTCGASTTGSRF
B8: Protein LDOC1 (Homo sapiens), O95751 (parent)
chain: MVDELVLLLHALLMRHRALSIENSQLMEQLRLLVCERASLLRQVRPPSCPVPFPETFNGESSRLPEFIVQTASYMLVNENRFCNDAMKVAFLISLLTGEAEEWVVPYIEMDSPILGDYRAFLDEMKQCFGWDDDEDDDDEEEEDDY
partner: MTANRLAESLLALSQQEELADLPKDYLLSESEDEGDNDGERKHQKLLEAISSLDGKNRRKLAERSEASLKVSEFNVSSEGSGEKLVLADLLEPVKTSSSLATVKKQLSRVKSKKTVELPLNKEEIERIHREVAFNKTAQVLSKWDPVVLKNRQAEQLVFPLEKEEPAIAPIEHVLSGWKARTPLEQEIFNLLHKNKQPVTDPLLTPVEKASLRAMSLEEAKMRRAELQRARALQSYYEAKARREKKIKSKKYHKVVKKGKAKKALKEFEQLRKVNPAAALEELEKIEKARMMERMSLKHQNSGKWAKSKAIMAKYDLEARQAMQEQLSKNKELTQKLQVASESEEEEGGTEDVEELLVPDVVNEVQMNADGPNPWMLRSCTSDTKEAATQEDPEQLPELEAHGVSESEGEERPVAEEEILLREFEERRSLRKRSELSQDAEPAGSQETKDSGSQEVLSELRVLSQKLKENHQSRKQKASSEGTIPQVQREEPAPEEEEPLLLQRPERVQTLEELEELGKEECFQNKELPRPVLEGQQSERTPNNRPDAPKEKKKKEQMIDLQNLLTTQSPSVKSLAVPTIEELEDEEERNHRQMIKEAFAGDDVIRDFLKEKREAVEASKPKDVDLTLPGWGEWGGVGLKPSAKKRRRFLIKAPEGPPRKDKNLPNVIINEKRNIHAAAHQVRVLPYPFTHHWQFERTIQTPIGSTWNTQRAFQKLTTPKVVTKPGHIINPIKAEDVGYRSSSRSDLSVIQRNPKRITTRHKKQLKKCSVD

Variants of: B1
Settings: with dapk2_human DAPK2, Q9UIK4
Sequence of dapk2_human DAPK2, Q9UIK4 (Q9UIK4 whole entry, looked up): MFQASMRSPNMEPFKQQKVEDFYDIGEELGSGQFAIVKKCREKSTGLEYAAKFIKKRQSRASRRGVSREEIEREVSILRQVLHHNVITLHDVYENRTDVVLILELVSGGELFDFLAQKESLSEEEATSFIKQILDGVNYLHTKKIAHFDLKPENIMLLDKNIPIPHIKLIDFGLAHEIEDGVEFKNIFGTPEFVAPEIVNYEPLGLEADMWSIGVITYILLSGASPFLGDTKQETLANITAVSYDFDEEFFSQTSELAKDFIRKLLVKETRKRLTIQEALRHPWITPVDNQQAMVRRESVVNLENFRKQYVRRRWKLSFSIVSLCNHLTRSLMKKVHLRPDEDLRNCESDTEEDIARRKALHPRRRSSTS

effect of a mutation on the interaction	Variant
with no effect	R23H

Variants of: B1
Settings: with tr61b_human TRMT61B

effect of a mutation on the interaction	Variant
with no effect	R23H

Variants of: B1
Settings: with pin4_human PIN4, Q9Y237
Sequence of pin4_human PIN4, Q9Y237 (Q9Y237 whole entry): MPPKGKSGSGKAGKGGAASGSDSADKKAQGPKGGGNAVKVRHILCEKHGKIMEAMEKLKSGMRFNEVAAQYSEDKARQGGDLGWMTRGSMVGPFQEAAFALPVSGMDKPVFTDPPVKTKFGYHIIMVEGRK

effect of a mutation on the interaction	Variant
with no effect	R23H

Variants of: B1
Settings: with cc106_human CCDC106, Q9BWC9
Sequence of cc106_human CCDC106, Q9BWC9 (Q9BWC9 whole entry): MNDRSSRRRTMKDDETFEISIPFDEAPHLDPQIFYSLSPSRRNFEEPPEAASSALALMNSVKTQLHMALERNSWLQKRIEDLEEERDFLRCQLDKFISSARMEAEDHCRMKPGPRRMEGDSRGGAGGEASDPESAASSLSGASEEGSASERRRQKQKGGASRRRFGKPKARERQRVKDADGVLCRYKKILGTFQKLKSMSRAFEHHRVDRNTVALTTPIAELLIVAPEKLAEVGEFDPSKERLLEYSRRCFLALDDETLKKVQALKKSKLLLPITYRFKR

effect of a mutation on the interaction	Variant
with no effect	R23H

Variants of: B1
Settings: with eftu_human TUFM

effect of a mutation on the interaction	Variant
with no effect	R23H

Variants of: B1
Settings: with xrcc4_human XRCC4, Q13426
Sequence of xrcc4_human XRCC4, Q13426 (Q13426 whole entry): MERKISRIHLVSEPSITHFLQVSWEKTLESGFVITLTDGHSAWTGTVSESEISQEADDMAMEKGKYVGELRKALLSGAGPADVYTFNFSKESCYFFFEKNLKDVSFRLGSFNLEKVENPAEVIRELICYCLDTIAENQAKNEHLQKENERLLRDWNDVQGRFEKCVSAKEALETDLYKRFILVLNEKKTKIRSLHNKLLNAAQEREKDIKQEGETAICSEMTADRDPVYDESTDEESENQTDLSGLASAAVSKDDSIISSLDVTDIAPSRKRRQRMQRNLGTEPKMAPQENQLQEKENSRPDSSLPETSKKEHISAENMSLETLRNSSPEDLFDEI

effect of a mutation on the interaction	Variant
with no effect	R23H

Variants of: B1
Settings: with daxx_human DAXX

effect of a mutation on the interaction	Variant
with no effect	R23H

Variants of: B2
Settings: with rop1l_human ROPN1L

Variant	effect of a mutation on the interaction
R398Q	with no effect
R213W	with no effect

Results, then the variant that gave them:

effect of a mutation on the interaction	Variant
with no effect	N201S
with no effect	R213Q

Variants of: B3
Settings: with htf4_human TCF12, Q99081
Sequence of htf4_human TCF12, Q99081 (Q99081 whole entry): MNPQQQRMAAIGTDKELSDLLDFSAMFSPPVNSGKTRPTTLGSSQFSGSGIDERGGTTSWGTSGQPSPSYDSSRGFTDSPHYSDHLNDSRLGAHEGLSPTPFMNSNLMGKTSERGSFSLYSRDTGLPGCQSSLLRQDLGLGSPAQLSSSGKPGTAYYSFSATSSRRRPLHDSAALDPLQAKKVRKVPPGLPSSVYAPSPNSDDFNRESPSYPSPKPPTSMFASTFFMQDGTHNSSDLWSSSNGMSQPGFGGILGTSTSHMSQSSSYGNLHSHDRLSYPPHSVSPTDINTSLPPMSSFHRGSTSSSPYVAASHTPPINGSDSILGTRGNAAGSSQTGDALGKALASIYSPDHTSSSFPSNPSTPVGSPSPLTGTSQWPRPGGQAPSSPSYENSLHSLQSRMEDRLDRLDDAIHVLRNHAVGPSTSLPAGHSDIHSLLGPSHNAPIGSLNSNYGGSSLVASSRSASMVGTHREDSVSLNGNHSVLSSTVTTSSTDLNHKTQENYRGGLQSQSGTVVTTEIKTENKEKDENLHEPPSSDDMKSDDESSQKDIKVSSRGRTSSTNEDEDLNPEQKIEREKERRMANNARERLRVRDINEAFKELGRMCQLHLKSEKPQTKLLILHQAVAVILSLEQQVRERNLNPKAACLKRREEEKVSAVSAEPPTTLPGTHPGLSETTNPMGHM

effect of a mutation on the interaction	Variant
disrupting interaction strength	S236L
with no effect	D320N

Variants of: B3
Settings: with itf2_human TCF4, P15884
Sequence of itf2_human TCF4, P15884 (P15884 whole entry): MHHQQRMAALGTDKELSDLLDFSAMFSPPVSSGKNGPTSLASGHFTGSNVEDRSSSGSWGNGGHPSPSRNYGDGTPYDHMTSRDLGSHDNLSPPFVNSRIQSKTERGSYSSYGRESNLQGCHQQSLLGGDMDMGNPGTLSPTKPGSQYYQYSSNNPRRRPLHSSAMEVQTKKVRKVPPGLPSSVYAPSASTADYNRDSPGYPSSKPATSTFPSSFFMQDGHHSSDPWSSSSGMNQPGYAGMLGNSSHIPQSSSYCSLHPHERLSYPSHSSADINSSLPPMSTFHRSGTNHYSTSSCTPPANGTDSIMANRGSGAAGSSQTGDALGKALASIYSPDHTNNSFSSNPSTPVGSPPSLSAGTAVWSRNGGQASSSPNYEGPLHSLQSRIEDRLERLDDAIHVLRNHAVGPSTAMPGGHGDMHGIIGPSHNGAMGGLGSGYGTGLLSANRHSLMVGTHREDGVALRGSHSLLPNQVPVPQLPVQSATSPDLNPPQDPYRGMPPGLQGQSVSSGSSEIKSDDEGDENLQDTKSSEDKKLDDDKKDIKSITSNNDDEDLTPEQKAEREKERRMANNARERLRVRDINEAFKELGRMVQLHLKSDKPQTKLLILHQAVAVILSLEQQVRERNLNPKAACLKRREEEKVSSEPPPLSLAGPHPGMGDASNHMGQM

effect of a mutation on the interaction	Variant
with no effect	S236L
with no effect	D320N

Variants of: B3
Settings: with ikzf3_human IKZF3, Q9UKT9
Sequence of ikzf3_human IKZF3, Q9UKT9 (Q9UKT9 whole entry): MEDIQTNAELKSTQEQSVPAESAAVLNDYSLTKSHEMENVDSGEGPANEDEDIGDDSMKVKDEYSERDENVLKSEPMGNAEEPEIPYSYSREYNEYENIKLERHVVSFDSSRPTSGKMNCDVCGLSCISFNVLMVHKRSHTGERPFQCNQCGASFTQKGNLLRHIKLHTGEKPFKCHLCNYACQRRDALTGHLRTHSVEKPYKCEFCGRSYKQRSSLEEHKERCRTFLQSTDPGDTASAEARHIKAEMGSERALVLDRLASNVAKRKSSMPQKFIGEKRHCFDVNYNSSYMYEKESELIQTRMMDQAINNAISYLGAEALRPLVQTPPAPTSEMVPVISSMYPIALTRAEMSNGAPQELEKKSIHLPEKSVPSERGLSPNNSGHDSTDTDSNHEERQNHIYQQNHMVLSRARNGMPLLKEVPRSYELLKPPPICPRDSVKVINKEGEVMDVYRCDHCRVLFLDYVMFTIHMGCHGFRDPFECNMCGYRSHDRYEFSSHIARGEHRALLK

effect of a mutation on the interaction	Variant
disrupting interaction strength	S236L
with no effect	D320N

Variants of: B4
Settings: with mtmr9_human MTMR9, Q96QG7

effect of a mutation on the interaction	Variant
with no effect	I55V

Variants of: B5
Settings: with magd1_human MAGED1, Q9Y5V3

effect of a mutation on the interaction	Variant
with no effect	G196R
with no effect	R30L
with no effect	P203L
with no effect	M25V

Variants of: B6
Settings: with af1l1_human AFAP1L1, Q8TED9
Sequence of af1l1_human AFAP1L1, Q8TED9 (Q8TED9 whole entry): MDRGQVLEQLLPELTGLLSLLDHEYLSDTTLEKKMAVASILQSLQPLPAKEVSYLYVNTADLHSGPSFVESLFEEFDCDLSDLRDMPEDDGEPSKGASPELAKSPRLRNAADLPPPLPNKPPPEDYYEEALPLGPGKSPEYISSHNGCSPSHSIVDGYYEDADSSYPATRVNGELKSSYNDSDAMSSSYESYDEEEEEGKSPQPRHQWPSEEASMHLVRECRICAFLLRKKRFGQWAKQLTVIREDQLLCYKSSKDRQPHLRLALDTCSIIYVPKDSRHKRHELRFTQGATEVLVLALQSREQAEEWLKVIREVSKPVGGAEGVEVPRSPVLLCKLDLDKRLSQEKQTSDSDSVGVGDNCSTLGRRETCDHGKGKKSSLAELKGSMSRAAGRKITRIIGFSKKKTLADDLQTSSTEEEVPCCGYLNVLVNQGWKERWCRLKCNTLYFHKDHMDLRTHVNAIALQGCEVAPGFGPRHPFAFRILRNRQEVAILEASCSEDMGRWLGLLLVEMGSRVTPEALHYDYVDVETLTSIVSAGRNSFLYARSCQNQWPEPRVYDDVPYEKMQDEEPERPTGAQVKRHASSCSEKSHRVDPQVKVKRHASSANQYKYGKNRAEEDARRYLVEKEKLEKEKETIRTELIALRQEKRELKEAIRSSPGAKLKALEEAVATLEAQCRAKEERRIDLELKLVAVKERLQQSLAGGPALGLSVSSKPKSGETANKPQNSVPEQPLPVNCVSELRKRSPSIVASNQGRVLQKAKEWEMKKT

effect of a mutation on the interaction	Variant
with no effect	G112S

Variants of: B6
Settings: with rwd2b_human RWDD2B

effect of a mutation on the interaction	Variant
disrupting interaction strength	G112S

Variants of: B7
Settings: with k2c4_human KRT4, P19013
Sequence of k2c4_human KRT4, P19013 (P19013 whole entry): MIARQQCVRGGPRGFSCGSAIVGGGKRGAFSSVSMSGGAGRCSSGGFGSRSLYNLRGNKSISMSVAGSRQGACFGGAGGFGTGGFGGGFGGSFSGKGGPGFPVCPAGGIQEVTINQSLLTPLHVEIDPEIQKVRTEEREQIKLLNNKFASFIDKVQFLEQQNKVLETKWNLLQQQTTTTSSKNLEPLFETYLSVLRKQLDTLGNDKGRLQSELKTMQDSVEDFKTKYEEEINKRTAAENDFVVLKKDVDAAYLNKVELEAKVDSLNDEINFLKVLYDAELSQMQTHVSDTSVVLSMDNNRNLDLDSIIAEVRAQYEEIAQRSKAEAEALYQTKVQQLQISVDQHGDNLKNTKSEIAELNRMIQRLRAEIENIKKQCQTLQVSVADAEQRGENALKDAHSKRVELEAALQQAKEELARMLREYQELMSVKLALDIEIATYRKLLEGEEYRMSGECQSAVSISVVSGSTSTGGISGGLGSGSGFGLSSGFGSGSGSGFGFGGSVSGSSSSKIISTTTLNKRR

effect of a mutation on the interaction	Variant
with no effect	A205S

Variants of: B7
Settings: with k2c8_human KRT8, P05787

effect of a mutation on the interaction	Variant
with no effect	A205S

Variants of: B7
Settings: with KRT6A

effect of a mutation on the interaction	Variant
with no effect	A205S

Variants of: B7
Settings: with k22e_human KRT2, P35908
Sequence of k22e_human KRT2, P35908 (P35908 whole entry): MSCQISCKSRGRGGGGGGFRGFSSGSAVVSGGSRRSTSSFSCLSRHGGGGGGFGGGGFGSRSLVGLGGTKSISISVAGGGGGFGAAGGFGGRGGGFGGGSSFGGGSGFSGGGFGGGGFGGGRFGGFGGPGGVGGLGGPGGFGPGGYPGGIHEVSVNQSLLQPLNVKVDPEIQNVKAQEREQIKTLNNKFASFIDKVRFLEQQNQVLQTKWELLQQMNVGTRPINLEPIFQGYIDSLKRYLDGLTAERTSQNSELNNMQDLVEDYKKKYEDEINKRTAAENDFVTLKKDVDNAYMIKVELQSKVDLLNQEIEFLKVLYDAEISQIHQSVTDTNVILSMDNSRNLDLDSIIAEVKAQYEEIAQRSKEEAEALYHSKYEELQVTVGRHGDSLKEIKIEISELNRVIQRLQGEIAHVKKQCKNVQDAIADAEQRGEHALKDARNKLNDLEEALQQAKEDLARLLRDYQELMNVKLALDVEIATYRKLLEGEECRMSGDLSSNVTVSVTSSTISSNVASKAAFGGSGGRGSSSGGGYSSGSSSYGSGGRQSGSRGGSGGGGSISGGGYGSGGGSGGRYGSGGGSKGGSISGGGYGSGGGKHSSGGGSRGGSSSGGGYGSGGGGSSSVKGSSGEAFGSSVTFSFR

effect of a mutation on the interaction	Variant
with no effect	A205S

Variants of: B8
Settings: with ut14a_human UTP14A

effect of a mutation on the interaction	Variant
with no effect	L12H
